Consider three molecules from patent US6521814B1, “Use of ligands for treatment of diseases responsive to retinoids” (Institut National de la Santa et de la Recherche Medicale, priority 1997, dated 2003).

What all share (details): tags: ΔAB truncations, bacterially expressed, from H. Gronemeyer
In series [1] the target is T1, RARα(ΔAB)/RXRα(ΔAB) heterodimer (Mus musculus, UniProt P11416;P28700 P11416:88-462,P28700:140-467).
T1 sequence 1: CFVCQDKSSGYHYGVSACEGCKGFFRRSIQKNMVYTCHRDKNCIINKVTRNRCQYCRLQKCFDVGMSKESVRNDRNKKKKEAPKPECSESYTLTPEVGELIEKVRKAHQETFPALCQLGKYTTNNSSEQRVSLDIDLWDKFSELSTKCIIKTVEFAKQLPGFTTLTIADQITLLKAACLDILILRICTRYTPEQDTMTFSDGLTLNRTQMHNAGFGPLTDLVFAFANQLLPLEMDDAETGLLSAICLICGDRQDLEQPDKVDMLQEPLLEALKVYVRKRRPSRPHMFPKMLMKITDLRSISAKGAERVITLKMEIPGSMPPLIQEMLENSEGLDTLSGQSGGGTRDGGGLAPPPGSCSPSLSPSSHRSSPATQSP
T1 sequence 2: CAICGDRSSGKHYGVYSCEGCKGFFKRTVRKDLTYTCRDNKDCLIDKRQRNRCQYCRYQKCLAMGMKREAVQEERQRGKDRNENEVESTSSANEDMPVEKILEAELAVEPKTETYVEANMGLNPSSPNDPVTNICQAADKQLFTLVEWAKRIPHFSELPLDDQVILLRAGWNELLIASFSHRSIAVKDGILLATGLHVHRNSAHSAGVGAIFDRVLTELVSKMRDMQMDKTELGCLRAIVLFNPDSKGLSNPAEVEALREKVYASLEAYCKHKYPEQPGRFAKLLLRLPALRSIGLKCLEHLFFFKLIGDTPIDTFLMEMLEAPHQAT
Briefly: competition; competes more efficiently than native RARE D2. The source says: (§1) DNA binding competition assays. Gel shift analysis using labeled RARE D2 (SEQ ID NO:2) and recombinant RARα and RXRα as indicated. As competitors, RARE D2 (SEQ ID NO:2), RAREβ2 (SEQ ID NO:5) and the mutant […] and […] cold oligonucleotides (SEQ ID NO:3) were used as indicated at 5, 50- and 100-fold molar excess. The black arrowhead indicates the shifted complex.
(§2) To further characterize the D2R RARE element and its binding affinity to retinoid receptors, mutations were introduced into this sequence generating D2 ml (SEQ ID NO:3) and D2 m2 (SEQ ID NO:4) (FIG. 7A). These mutated oligonucleotides were used for competition in gel-shift assays (FIG. 8).
(§3) DNA Binding Assays. A 29-bp synthetic oligonucleotide (SEQ ID NO:2) corresponding to the RARE region in the D2R promoter (SEQ ID NO:1) (from positions −76 to −49), in addition to two mutated oligonucleotides (SEQ ID NOs:3 and 4) (FIG. 7A) were used in gel retardation assays. A synthetic oligonucleotide corresponding to the RARE-β2 (SEQ ID NO:5) (Mader, S., et al., *J. Biol. Chem.* 268:591–600 (1993)) was used as positive control. Bacterially-expressed purified mouse RARα (ΔAB) and RXRα (ΔAB) proteins were kindly provided by H. Gronemeyer.

Series [2] deals with T1, RARα(ΔAB)/RXRα(ΔAB) heterodimer. Briefly: competition; drastic decrease of labeled RARE D2 complex at 5-fold excess, complete at 50-fold; stronger than RARE D2.
From the text: as §1, §3

Series [3] has the same target. Briefly: competition; no competition even at 100-fold excess.
From the text: as §1, §2, §3

B1: D2m2 (dsDNA)
DNA 1: AGCTTCCTCGTGACCAGGGTGACCCCGCG
DNA 2: CGCGGGGTCACCCTGGTCACGAGGAAGCT
B1: in series [1], the binding result is “binds”.

B2: RAREβ2 (dsDNA)
DNA 1: GGGTAGGGTTCACCGAAAGTTCACTG
DNA 2: CAGTGAACTTTCGGTGAACCCTACCC
As to B2, the binding result in series [2] is given as “binds”.

B3: D2m1 (dsDNA)
DNA 1: AGCTTCCTCGGTGCGAGGGGTACGCCGCG
DNA 2: CGCGGCGTACCCCTCGCACCGAGGAAGCT
As to B3, the binding result in series [3] is listed as “no binding”.
